{"source": "patent US20070184522A1", "about": "“Cell death modulation via antagonists of Fasl and Fas activation” (University of Pittsburgh of the Commonwealth System of …, priority 2004, published 2007)", "molecules": {"B1": {"name": "alpha subunit of Met (AlphaMet), amino acid residues 1 to 306, His-tagged (receptor, mouse)", "chain": "MKAPTVLAPGILVLLLSLVQRSHGECKEALVKSEMNVNMKYQLPNFTAETPIQNVVLHGHHIYLGATNYIYVLNDKDLQKVSEFKTGPVLEHPDCLPCRDCSSKANSSGGVWKDNINMALLVDTYYDDQLISCGSVNRGTCQRHVLPPDNSADIQSEVHCMFSPEEESGQCPDCVVSALGAKVLLSEKDRFINFFVGNTINSSYPPGYSLHSISVRRLKETQDGFKFLTDQSYIDVLPEFLDSYPIKYIHAFESNHFIYFLTVQKETLDAQTFHTRIIRFCSVDSGLHSYMEMPLECILTEKRRKRHHHHHH"}}, "key": {"Fas-Fc": {"biological_target": "T1, Fas-Fc (Mus musculus, UniProt P25446)", "T1 construct": "purchased R&D", "T1 sequence (P25446 22-169 limits assumed)": "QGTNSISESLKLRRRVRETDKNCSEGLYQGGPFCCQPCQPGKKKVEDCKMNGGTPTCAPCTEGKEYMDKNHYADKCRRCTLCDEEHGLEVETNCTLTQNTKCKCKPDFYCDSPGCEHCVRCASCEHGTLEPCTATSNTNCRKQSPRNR", "test": "ELISA of Fas-Fc binding to coated synthetic polypeptides", "conditions": "peptides coated at 1 μg/ml, increasing Fas-Fc, OD 450 nm", "from_the_text": "The Met alpha but not beta chain binds to Fas (FIG. 1a). Various regions of the mouse Met cDNA corresponding to the alpha chain or the extra-cellular portion of the Met beta chain were cloned into expression vectors (pCRT7 TOPO/AlphaMet or pCRT7 TOPO/beta chain) and subjected to in vitro transcription/translation by a rabbit reticolucyte lysate translation system. Empty vector was included in each experiment as a control. The expressed proteins were labeled with ^35S-Methionine. Pull down assays were performed using Fas-Fc, a chimeric molecule which lacks the interacellular cytoplasmic domain and protein-A agarose as described in Wang et al., 2002. FIG. 1b is a schematic presentation of the Met alpha chain and its mutant version used to map the region interacting with Fas. The C-terminus of each construct contains a hexa-Histidine tag for ease of detection. Start cordon ATG was added to the N-terminally truncated constructs. The YLGA (SEQ ID NO:1) motif mutation was prepared by PCR, in which YLGA (SEQ ID NO:1) was replaced by DHER (SEQ ID NO:24). […] In vitro translated ^35S-methionine labeled truncated/mutated AlphaMet proteins were pulled down with 2 μg of Fas-Fc or the same amount of IgG. Lane 1: 10% of AlphaMet input; Lane 2: AlphaMet with IgG control; Lanes 3 to 8: pull down of various truncated AlphaMet proteins; N-terminal 1-106 residues; C-terminal truncated, residues 1-210; alpha chain, residues 1-306; alpha chain with transmembrane domain, 1-338; N-terminally truncated alpha chain, residues 100-306; and N-terminally truncated with addition of the transmembrane domain 100-338, respectively. FIG. 1d depicts the amino acid sequence alignment of alpha chain with FasL, determined using the CLUSTALW, SIM+LALNVIEW, and ALIGN at ExPASy Proteomic Tools (available on the internet at us.expresly.org/tools). The numbers indicate the amino acid residues of the indicated protein. […] Recombinant His-tagged AlphaMet or its mutant version were expressed in E. coli, purified with chromatography, and subjected to Fas-Fc (lanes labeled Fas) or control IgG pull down experiments, and detected by Western blot using anti-His antibody that recognizes C-terminal His. This antibody also recognizes the Fas-Fc which is also tagged at the C-terminus by His. […] Purified recombinant AlphaMet protein (approximately 10 μg) was mixed with Hepa 1-6 cells or Jurkat cell lysates and subjected to immunoprecicitation using anti-Fas antibody or control IgG followed by Western blot using anti His-tag antibody as a probe. […] Peptides (1 μg/ml) were coated into the 96-well microtiter plates in triplicate and after blocking with 1% BSA, increasing amounts of Fas-Fc were added as indicated. The control peptide was a scrambled 13 mer. After washing the wells, anti-human […]-HRP conjugates (1:20,000) were added to detect the bound Fas-Fc using TMD dye and the OD value was determined at a wavelength of 450 nm. One-way ANOVA was carried out for determination of statistical significance.\nELISA. Synthesized polypeptides (Genemed Synthesis, Inc. South San Francisco, Calif.) were dissolved in water and diluted in the coating buffer (0.05M of Sodium Carbonate, 0.02% of Sodium Azide, pH 9.6) to a final concentration of 1 ug/ml. One hundred microliter aliquots were added to coat each well of a 96-well microtitre plate. The coated plates were then washed with PBS-Tween (0.5%) three times. The plates were blotted and dried by tapping upside down on tissue paper. They were blocked using 200 μl of 1% of BSA in PBS solution followed by a 2 hour incubation. Plates were washed another three times, Fas-Fc was added, and the plates were incubated for another 2 hours. The plates were washed three times and anti-human IgM Fc HRP conjugates were included at a final concentration of 1:20,000, and incubated for 1 hour. Plates were washed three times again and ready-to-use TMD was added and incubated for 30 minutes. The color reaction was stopped by 2M of Sulfuric Acid. […]"}, "[1]": {"tested_on": "Fas capping in Hepa 1-6 cells", "test": "Fas capping of fluorescent protein tagged Fas in Hepa 1-6 cells", "format": "cell-based", "conditions": "for FasL-induced Fas capping: Hepa 1-6, FasL 1 μg/ml, AlphaMet 5 μg/ml or YLGA 12 mer 1 μg/ml, 30 minutes; for Jo2-induced Fas capping/clustering: Hepa 1-6, Jo2 100 ng/ml", "experimental": "FIG. 3a presents data collected from Jurkat cells (1×10^6) treated with 2 μg/ml of Fas Ligand with or without AlphaMet for 30 minutes on ice. Cells were washed with PBS twice and then incubated with 2 mM of DTSSP in PBS for 30 minutes. The crosslinking process was stopped by 20 mM of Tris (pH 7.5) for another 30 minutes. Cells were spun down and washed with PBS twice and lyzed in RIPA buffer. Cell lysates were subjected to SDS-PAGE under non-reducing or reducing conditions (FIG. 3b) and Western blot analysis using the mouse monoclonal antibody against human Fas. FIG. 3c depicts the quantification of the data in FIG. 3a by densitometry. The data are the mean and SE from three different independent crosslinking and Western blot experiments. […] Frame A: Acceptor CFP-Fas image; Frame B: Acceptor pre-bleach CFP-Fas image; Frame C: Acceptor post-bleach image. Frame D: Donor YFP-Fas image; Frame E: Donor pre-bleach image; Frame F: […]. The CFP-Fas strength in the selected region obtained a gain of 19.3% efficiency in the presence of FasL for 15 minutes. No FRET was observed without FasL. […] FIG. 3e depicts the results of experiments in which CFP-tagged Fas or CFP control vector were transiently expressed in Hepa 1-6 Cells (3×10^5). Cells were treated with 1 μg/ml of Fas ligand or 100 ng/ml of Jo2 with or without 5 μg/ml of AlphaMet or 1 μg/ml of YLGA 12 mer for 30 minutes on ice. Cells were fixed and analyzed by fluorescence microscopy. Frame A: AlphaMet treatment only, no FasL; Frame B: Fas ligand treatment only; Frame C: Fas ligand and AlphaMet treatment; Frame D: Fas ligand and 12 mer YLGA; Frame E: Jo2 treatment only and Frame F: Jo2 and AlphaMet treatment.\nFluorescence protein tagged Fas molecules and Hepa 1-6 cells were used for these experiments. These cells were transiently co-transfected with CFP and YFP chimeric Fas expression vectors using the lipofectamine 2000 method (Invitrogen). After 24 hours of transfection, about 50% of the cells were fluorescing. The cells were treated by Fas-ligand in the presence or absence of AlphaMet for 30 minutes. Treated cells were then fixed with cold methanol and subjected to FRET analysis. Cells were considered positive if FRET efficiency was over 10%. FRET phenomenon was observed only in cells that were treated with Fas-ligand. […] In these experiments the percent of Fas capping was also determined."}}, "note": "Entries after “also recorded” stand apart in the source; their conditions may differ.", "data": [{"molecule": "HHIYLGATNYIY [12 mer]", "values": [{"measurement": "Fas binding by ELISA", "setting": "Fas-Fc", "value": "bound Fas strongly"}, {"measurement": "FasL-induced Fas capping", "setting": "[1]", "value": "inhibited to the background level"}, {"measurement": "Jo2-induced Fas capping/clustering", "setting": "[1]", "value": "reduced Jo2-induced Fas capping"}]}, {"molecule": "YLGA [YLGA 4 mer]", "values": [{"measurement": "Fas binding by ELISA", "setting": "Fas-Fc", "value": "lower compared to the YLGA 12 mer"}]}, {"molecule": "B1", "values": [{"measurement": "FasL-induced Fas capping", "setting": "[1]", "value": "inhibited to the background level"}, {"measurement": "Jo2-induced Fas capping/clustering", "setting": "[1]", "value": "also inhibited; also recorded: reduced Jo2-induced Fas capping"}]}]}
